In the supplement of paper PMC10567573:
± gives the standard deviation.

Assay: protein stability index of a GFP-peptide fusion (GPS, HEK-293T) (PSI 1-6); higher = more stable
[1] = treatment: DMSO, c terminus: a fixed tail appended
[2] = treatment: MLN4924 1 uM, 8 h, c terminus: a fixed tail appended
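Further: 24-mer peptide tiles fused after GFP, lentivirally expressed, FACS-sorted into six equal bins by GFP/DsRed ratio, decoded by Illumina sequencing, PSI is the read-weighted mean bin number.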

Sequence | protein stability index [1] | protein stability index [2] | protein stability index (treatment: DMSO, c terminus: native) | protein stability index (treatment: MLN4924 1 uM, 8 h, c terminus: native)
AALTNKHSQELTNEKEKALQAQVQ [SASS6] | 5.3 ± 0.086 | 5.46 ± 0.19 | – | –
TDFYLIFNDVAKFLKQGDSADETT [CMTM3] | 2.75 ± 0.31 | 2.6 ± 0.33 | – | –
INLATMNSCINPIALYFVSKKFKN [EDNRA] | 2.83 ± 1.4 | 2.01 ± 0.13 | – | –
VPIKPPCIPNGKENFSGGTSLWQN [CAMK2D] | 2.65 ± 0.12 | 2.71 ± 0.57 | – | –
SPYLGQMINLRRLLLSHIHASSYI [PRAME] | 2.7 ± 0.51 | 2.47 ± 0.48 | – | –
REMVMYSITVAFWLLNSWLWFRR [MFF] | – | – | 2.27 ± 0.96 | 2.48 ± 0.86
GREVELKPYIAAHFDVLPTEFTLG [PTPRD] | 3.01 ± 0.37 | 3 | – | –
PTPDDHVFRWLAYSYASTHRLMTD [CPXM2] | 2.64 ± 0.49 | 2.62 ± 0.59 | – | –
LWAGSKGKEFGYFPRDAVQIEEVF [MIA2] | 2.66 ± 0.51 | 2.77 ± 0.46 | – | –
CQLALQQKRETLSPLCLIPMVTSP [KCTD13] | 2.27 ± 0.16 | 2.19 ± 0.17 | – | –
TAIRQLTEPSGRVAKKTPTKRSTL [C2CD2L] | 4.37 ± 0.15 | 4.44 ± 0.084 | – | –
AAMFGGSFVESANSEVYLPNINKI [RHOBTB1] | 2.93 ± 0.23 | 2.93 ± 0.18 | – | –
QLMTSQFISVFSNLLESKADGIEV [ZER1] | 2.89 ± 0.62 | 2.5 ± 0.54 | – | –
TRKHYQVTGYGINGTGDSNDFWRI [POMT2] | 2.34 ± 0.25 | 2.32 ± 0.28 | – | –
GGLAESELRPRRGRCGPQAARAAG [POMT2] | 3.71 ± 0.17 | 3.75 ± 0.38 | – | –
SALGPNVTKITLESFLAWKKRKRQ [ZC3H15] | 2.92 ± 0.14 | 3.14 ± 0.28 | – | –
HVKFRSLSMVSECLFSLINGDDMF [MCOLN1] | 2.84 ± 0.45 | 2.61 ± 0.45 | – | –
RDSYSSSSRGAPRGGGRGGSRSDR [RBMX] | 5.41 ± 0.24 | 5.44 ± 0.17 | – | –
LYRGLAPNFMKVIPAVSISYVVYE [SLC25A25] | 2.71 ± 0.67 | 3.25 ± 0.51 | – | –
GAQGSGGGSTSAHYAVNSQFTMGG [CARM1] | 3.92 ± 0.34 | 4.23 ± 0.2 | – | –
QCDALIDALNRRKAQLLARVNKEH [TRIM9] | 3.05 ± 0.2 | 3.27 ± 0.23 | – | –
MAGRPHPYDGNSSDPENWDRKLHS [BTBD10] | 4.63 ± 0.086 | 4.71 ± 0.088 | – | –
ITEEKVCMVCKKKIGNSAFARYPN [VPS39] | 2.73 ± 0.31 | 3.43 ± 0.53 | – | –

Sequence | protein stability index [1] | protein stability index [2] | protein stability index (treatment: DMSO, c terminus: native) | protein stability index (treatment: MLN4924 1 uM, 8 h, c terminus: native)
LREIRMLKQLKHPNLVNLIEVFRR [CDKL4] | 2.31 ± 0.3 | 2.13 ± 0.67 | – | –
LLARLRELEQQIWKERDEYITKVS [TRIM15] | 1.98 ± 0.36 | 1.96 ± 0.56 | – | –
PTHPSSTHALAEWASRREAFAQRP [CDC25B] | 4 ± 0.26 | 3.91 ± 0.3 | – | –
SWDTESSGSDSGGSSSSSSSSINS [FAM104A] | 5.25 ± 0.22 | 5.1 ± 0.26 | – | –
LPPDALIIEYRGKFMLREQFEANG [KMT2E] | 2.57 ± 0.31 | 2.63 ± 0.18 | – | –
PDKEEQLPFGPFNGTAWTYHSQDE [PKD2L1] | 4.67 ± 0.1 | 4.76 ± 0.38 | – | –
TEVPYATFTEHPMKYTSEKFLEIC [TPRG1] | 2.64 ± 0.068 | 2.75 ± 0.12 | – | –
PLPAGSLPPYPPYFEGAPFPHPLW [PWWP2B] | 2.58 ± 0.31 | 2.64 ± 0.37 | – | –
HHLPLPDNWKSQVEPETRAVIRWM [CPN1] | 2.62 ± 0.34 | 2.77 ± 0.44 | – | –
PGRGVYLLKFDNSYSLWRSKSVYY [ACBD3] | 2.78 ± 0.52 | 2.69 ± 0.76 | – | –
LEKEIEVLERGDSAPATAKENAAA [PALM] | 5.34 ± 0.2 | 5.62 ± 0.2 | – | –
PEQALDTPGDCPPGRRDEDAGEGI [TMEM175] | 5.53 ± 0.23 | 5.43 ± 0.17 | – | –
IEAGAHMDATNAFKKTAYELLDEK [FEM1A] | 4.79 ± 0.21 | 5.04 ± 0.34 | – | –
KAVEEELDAEDRPAWNSKLQYILA [SLC6A17] | 2.96 ± 0.38 | 3.15 ± 0.24 | – | –
ASKEEKEDWLSHALSRKKSQGLAR [FBF1] | 4.57 ± 0.18 | 4.57 ± 0.32 | – | –
QQHRQGRSHHLEMVIQLLAIMCVS [PTGFR] | 2.61 ± 0.51 | 2.12 ± 0.44 | – | –
GLNLGKKISVPRDVMLEELSLLTN [MYOZ1] | 2.72 ± 0.41 | 3.1 ± 0.29 | – | –
ALGSRGWEPFDWGRLLEALCREEP [FANCE] | 2.61 ± 0.2 | 2.82 ± 0.33 | – | –
PNYEFKLGKITFIRNSRPLVKKVE [UFD1] | 2.62 ± 0.5 | 2.77 ± 0.35 | – | –
YSENAPFHLSLFQGWMNLLNMAKK [PLD5] | 2.08 ± 0.61 | 2.23 ± 0.13 | – | –
RSGGHAPRVRELLLDALSPEQLVL [ESR2] | 2.82 ± 0.14 | 2.91 ± 0.34 | – | –
YKIVTAREWRCCPGHSGVSCEEVA [EMID1] | 2.49 ± 0.32 | 2.39 ± 0.41 | – | –
HAEIIAWIRICRPGSIIGPQQHFL [CDC14A] | 3.91 ± 0.99 | 2.74 ± 1.6 | – | –

Sequence | protein stability index [1] | protein stability index [2] | protein stability index (treatment: DMSO, c terminus: native) | protein stability index (treatment: MLN4924 1 uM, 8 h, c terminus: native)
HFRHPKRSVSLSMRKSGAMKKGGI [BNIP3L] | 3.51 ± 0.36 | 3.32 ± 0.35 | – | –
RDQIFRYVHDPECVATTGDITVSV [FBXO3] | 2.52 ± 0.2 | 2.42 ± 0.27 | – | –
QVDVRFFGHHHQRAWIPSENIQDI [ZMYND11] | 2.74 ± 0.22 | 2.94 ± 0.17 | – | –
GNAHLGYSLVTHIPAGARDIQIVE [ADAMTSL2] | 3.03 ± 0.34 | 3.24 ± 0.13 | – | –
MALPFFSLAEVRVGYQSQNISCFF [MYORG] | 3.15 ± 1.1 | 3.11 ± 0.89 | – | –
TSSKVNATVPSNMMSVNGQAKTHT [ACBD3] | 4.38 ± 0.13 | 4.45 ± 0.082 | – | –
PDKECRRCMQCDAKFDFLTRKHHC [ZFYVE21] | 3.91 ± 0.078 | 4 ± 0.27 | – | –
CLLSSNSRSLLTGGYNLASVSVWD [TLE6] | 2.4 ± 0.38 | 2.18 ± 0.18 | – | –
CPLTRSNGDLSRSLSPSPLGSSAA [FCHO1] | 4.17 ± 0.22 | 4.17 ± 0.33 | – | –
PGPQDPEESASRQRFGEALQDQEK [ELOA2] | 5.53 ± 0.29 | 5.68 ± 0.16 | – | –
IFIIQACRGNQHDVPVIPLDVVDN [CASP6] | 2.71 ± 0.59 | 2.49 ± 0.7 | – | –
GWGTVFSLESEEEEYPGITAEDSN [BCL2L13] | 5.05 ± 0.23 | 5.03 ± 0.38 | – | –
CKSGAAAKGGFSGCSAVLSGGSSS [KRT71] | 3.26 ± 0.46 | 3.44 ± 0.066 | – | –
EKPRVPAFACQVAGCCQVFDALDD [ZNF511] | 3.94 ± 0.22 | 3.99 ± 0.092 | – | –
FTRNEFNLESKSTIGVEFATRSIQ [RAB11A] | 2.97 ± 0.3 | 3.2 ± 0.21 | – | –
HAPGVPRILVGNRLHLAFKRQVPT [RAB40C] | 2.69 ± 0.17 | 2.72 ± 0.13 | – | –
LNDISRKSEGLSGRVLRKLPFLAH [TRIP13] | 2.11 ± 0.27 | 2.57 ± 0.55 | – | –
PEQQVDMHDMLLEELAPVGTAHIP [ZNF449] | 4.68 ± 0.28 | 4.8 ± 0.085 | – | –
VLDLQRIFALYSSLKFKSRVPQTW [PLD5] | 3.19 ± 0.94 | 2.09 ± 0.26 | – | –
PERSYVFNGDFVDRGKDSVEILMI [PPEF2] | 2 ± 0.38 | 2.23 ± 0.31 | – | –
ASFHHKLHHKRLAKECMLQEENKS [CBY2] | 4.1 ± 0.26 | 4.27 ± 0.2 | – | –
LRFSGVNDTDFRVYLLGNPVVWWL [POMT2] | 2.85 ± 0.43 | 2.96 ± 0.6 | – | –
AMELKVEDPFYWVSPGVLVLLAVL [MOG] | 2.8 ± 0.94 | 2.55 ± 0.34 | – | –

Sequence | protein stability index [1] | protein stability index [2] | protein stability index (treatment: DMSO, c terminus: native) | protein stability index (treatment: MLN4924 1 uM, 8 h, c terminus: native)
TLEEIQKHNHSKSTWLILHHKVYD [CYB5A] | 2.37 ± 0.19 | 2.58 ± 0.24 | – | –
SSTSGGSGYGFRPSMVSGGYVANS [KRT71] | 3.29 ± 0.31 | 3.46 ± 0.49 | – | –
RVWLKRDSGQYWPSVYHAMPSPCS [WDFY2] | 2.26 ± 0.27 | 2.33 ± 0.46 | – | –
LDMDEGTLSFIVDGQYLGVAFRGL [SPSB4] | 2.6 ± 0.46 | 2.26 ± 0.59 | – | –
SRLPAKCPGKGAWSIPWKWLFGAT [FKBP8] | 1.99 ± 0.22 | 2.05 ± 0.28 | – | –
ANRWSFEGMDRWIKKIEEHAPGVP [RAB40A] | 3.33 ± 0.26 | 3.4 ± 0.33 | – | –
VVEKRLCMYEHGEDTHQSPEPEDE [RSPH3] | 5.43 ± 0.43 | 5.58 ± 0.23 | – | –
KEDLIIPHHHSFYDFIVTKARGKS [FAM50A] | 3.4 ± 0.095 | 3.73 ± 0.16 | – | –
VLSEGSPLTEQEESSPSHDRSRTV [SRPK2] | 5.35 ± 0.33 | 5.32 ± 0.25 | – | –
SVKLRALRSPRKFGVAGRSCQEVL [DFFB] | 2.73 ± 0.34 | 3.01 ± 0.54 | – | –
DEWACELRLFGRVLERAACLRRCK [P3H4] | 2.74 ± 0.49 | 2.8 ± 0.6 | – | –
NAYKDLAWKHGNIHLSAPCIYSEV [PCMTD1] | 2.31 ± 0.17 | 2.15 ± 0.31 | – | –
KIYFTDSSSKWQRRDYLLLVMEGT [APMAP] | 2.68 ± 0.45 | 2.15 ± 0.37 | – | –
REAGFHQYEVSNFARNGALSTHNW [RSAD1] | 2.97 ± 0.28 | 3.08 ± 0.2 | – | –
GVRIVSRGRTQLFSLNPRSGSLIT [PCDHGA10] | 2.08 ± 0.2 | 2.21 ± 0.25 | – | –
DMLREMFSDSRSNNDDDEDEDDED [TAF7L] | 5.36 ± 0.36 | 5.63 ± 0.17 | – | –
GTWDDAFATFCGGLAANGALQRLD [LRRC45] | 3.2 ± 0.052 | 3.12 ± 0.28 | – | –
AVHLCNALVCQVDNDHKEAVGKMG [ZER1] | 3.75 ± 0.23 | 3.77 ± 0.13 | – | –
SLKEAEFYDKQLKVLLSGATFLVT [ZFYVE21] | 2.27 ± 0.52 | 2.55 ± 0.19 | – | –
QVQCHSYTGYCWCVTPNGRPISGT [SMOC2] | 2.08 ± 0.26 | 2.37 ± 0.38 | – | –
